According to US11198713B2, “Agents modulating beta-catenin functions and methods thereof” (FOG PHARMACEUTICALS, INC., priority 2017, dated 2021):
Numbered stars: 1 amine (or outer) side, 2 acyl side, 3 side chain; on linkers, the order of the positions; unused ones are H or OH. Bridge positions count the residues as written; N and C are the ends. Square brackets hold non-standard residues; d marks the D form. Primed or numbered codes have the meaning given here. Peptide text beside a SMILES is read from it. * marks the point of attachment. MB = Monomer B = PyrS, Alloc-pyrrolidine stapling residue (allyl carbamate on pyrrolidine N); MB(12) = Monomer B (PyrS), pyrrolidine stapling residue with N-allyl carbamate; MC(3) = Monomer C (PyrR), pyrrolidine stapling residue with N-allyl carbamate; MI = Monomer I = ReN, acyclic amine-bearing olefin stapling residue; MD = Monomer D = SgN, acyclic Alloc-amine olefin stapling residue; R6 = (R)-2-(5-hexenyl)alanine, C=CCCCC[C@@](C)(N[*:1])C(=O)[*:2]; S6 = (S)-2-(5-hexenyl)alanine, C=CCCCC[C@](C)(N[*:1])C(=O)[*:2]; MG = Monomer G = RdN, acyclic alkyl-N(Alloc) stapling residue; MC = Monomer C = PyrR, Alloc-pyrrolidine stapling residue; MA = Monomer A (Az), N-Alloc azetidine stapling residue; S7 = C[C@@](CCCCCC=[*:3])(N[*:1])C(=O)[*:2]; R8 = C=CCCCCCC[C@@](C)(N)C(=O)O; S8 = C=CCCCCCC[C@](C)(N)C(=O)O; R5 = C=CCCC[C@@](C)(N)C(=O)O; MB(7) = not defined here; Nle = CCCC[C@H](N)C(=O)O; Hex = hexyl, CCCCCC*; Octyl = CCCCCCCC*; βAla = NCCC(=O)O

T1: biotinylated beta-catenin (UniProt P35222 134-665, limits assumed, biotinylated (site not stated))
T1 construct: also called beta-catenin (SPR); armadillo domain of β-catenin
T1 sequence (looked up): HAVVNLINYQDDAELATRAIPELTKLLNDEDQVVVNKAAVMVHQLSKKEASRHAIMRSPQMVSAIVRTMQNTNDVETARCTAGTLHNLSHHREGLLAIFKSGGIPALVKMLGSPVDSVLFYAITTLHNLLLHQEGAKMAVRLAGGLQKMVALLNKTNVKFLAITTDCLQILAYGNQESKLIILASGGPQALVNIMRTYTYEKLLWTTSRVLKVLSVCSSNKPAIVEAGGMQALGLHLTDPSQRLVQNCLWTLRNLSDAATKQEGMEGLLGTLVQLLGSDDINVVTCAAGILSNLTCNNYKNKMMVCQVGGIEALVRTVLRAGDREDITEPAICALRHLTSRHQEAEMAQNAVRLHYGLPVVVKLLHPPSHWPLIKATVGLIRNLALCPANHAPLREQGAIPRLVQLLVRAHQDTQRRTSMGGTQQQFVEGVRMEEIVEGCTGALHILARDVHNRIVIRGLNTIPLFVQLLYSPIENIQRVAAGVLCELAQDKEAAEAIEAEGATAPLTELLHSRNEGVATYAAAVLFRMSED

T2: full-length beta-catenin (UniProt P35222 2-781, limits assumed)
T2 construct: mature; also called full-length ß-Catenin; β-catenin
T2 sequence (looked up): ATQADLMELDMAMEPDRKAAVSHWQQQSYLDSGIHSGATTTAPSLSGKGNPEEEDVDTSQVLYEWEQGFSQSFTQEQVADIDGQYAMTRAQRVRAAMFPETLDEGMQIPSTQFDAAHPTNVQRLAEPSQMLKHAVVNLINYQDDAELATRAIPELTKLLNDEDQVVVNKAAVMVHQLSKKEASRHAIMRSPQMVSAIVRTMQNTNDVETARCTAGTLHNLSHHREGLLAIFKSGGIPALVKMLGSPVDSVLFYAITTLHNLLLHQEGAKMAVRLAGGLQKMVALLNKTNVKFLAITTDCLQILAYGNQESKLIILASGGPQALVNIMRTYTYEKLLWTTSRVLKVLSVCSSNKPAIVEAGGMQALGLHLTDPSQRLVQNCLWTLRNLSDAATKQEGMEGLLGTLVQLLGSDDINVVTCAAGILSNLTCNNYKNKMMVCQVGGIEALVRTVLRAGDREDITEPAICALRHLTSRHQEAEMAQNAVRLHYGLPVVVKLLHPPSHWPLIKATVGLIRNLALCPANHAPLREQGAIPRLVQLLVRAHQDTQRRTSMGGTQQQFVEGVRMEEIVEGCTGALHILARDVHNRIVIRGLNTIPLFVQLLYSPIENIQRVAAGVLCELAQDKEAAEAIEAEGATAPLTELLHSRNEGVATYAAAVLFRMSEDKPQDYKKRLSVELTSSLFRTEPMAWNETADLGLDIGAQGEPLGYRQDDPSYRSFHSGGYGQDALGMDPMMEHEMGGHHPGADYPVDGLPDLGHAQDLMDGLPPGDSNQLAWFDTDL

B1: FP0217c_bAfree (peptide)
peptide: H-[βAla]A[R8]ILDAHI[MB]RVW-NH2
modifications: staple 3-10
B2: FP0509c (peptide)
peptide: AXILDAHIXRVW
modifications: not fully specified; Ac-A-R4-I-L-D-A-H-I-MH-R-V-W-NH2; carbamate staple R4/MH
B3: FP0777a (peptide)
peptide: Ac-PQ[R5]ILD[MI]HVRRVWR-NH2
modifications: staple 3-7; also: amino staple (-N(R')-), from carbamate staple by metathesis then Pd(0) CO2 extrusion
notes: also called FP-0777 (amino staple)
B4: FP0735a (peptide)
peptide: Ac-PQ[R6]ILD[MA]HVRRVWR-NH2
modifications: staple 3-7; also: amino staple: CO2 extruded from carbamate staple with Pd(PPh3)4
notes: also called FP-0735 (amino staple)
B5: FP0783a (peptide)
peptide: Ac-PQ[MI]ILD[R5]HVRRVWR-NH2
modifications: staple 3-7; also: amino staple (-N(R')-), from carbamate staple by metathesis then Pd(0) CO2 extrusion
notes: also called FP-0783 (amino staple)
B6: FP0776a (peptide)
peptide: Ac-PQ[R5]ILD[MG]HVRRVWR-NH2
modifications: staple 3-7; also: amino staple (-N(R')-), from carbamate staple by metathesis then Pd(0) CO2 extrusion
notes: also called FP-0776 (amino staple)
B7: FP0763a (peptide)
peptide: Ac-PQ[S7]ILD[MB(7)]HVRRVWR-NH2
modifications: staple 3-7; reading uncertain; also: amino staple: CO2 extruded from carbamate staple with Pd(PPh3)4
notes: also called FP-0763 (amino staple)
B8: FP0767a (peptide)
peptide: Ac-PQ[R6]ILD[MC]HVRRVWR-NH2
modifications: staple 3-7; also: amino staple (-N(R')-), from carbamate staple by metathesis then Pd(0) CO2 extrusion
notes: also called FP-0767 (amino staple)
B9: FP0745a (peptide)
peptide: Ac-PQ[MC]ILD[R6]HVRRVWR-NH2
modifications: staple 3-7; also: amino staple: CO2 extruded from carbamate staple with Pd(PPh3)4
notes: also called FP-0745 (amino staple); PR/R6
B10: FP0738a (peptide)
peptide: Ac-PQ[S7]ILD[MA]HVRRVWR-NH2
modifications: staple 3-7; also: amino staple: CO2 extruded from carbamate staple with Pd(PPh3)4
notes: also called FP-0738 (amino staple); S7/Az
B11: FP0736a (peptide)
peptide: Ac-PQ[S6]ILD[MA]HVRRVWR-NH2
modifications: staple 3-7; also: amino staple: CO2 extruded from carbamate staple with Pd(PPh3)4
notes: also called FP-0736 (amino staple)
B12: FP0338c (peptide)
peptide: Ac-A[R8]ILDAHI[MD]RVW-NH2
modifications: staple 2-9

The molecules below were run against T1, biotinylated beta-catenin (assay: SPR (Biacore, biotinylated beta-catenin)). Details: not given.
Experimental: (§1) Additionally or alternatively, binding to beta-catenin may be measured by Surface Plasmon Resonance. In an exemplary assay, approximately 6 nmol dried peptide diluted in buffer (50 mM Tris pH 8.0, 300 mM NaCl, 2% glycerol, 0.5 mM TCEP, 0.5 mM EDTA, 0.005% Tween-20, 1 mg/mL CM Dextran, 0.02% w/v sodium azide) was assayed on a Biacore X100 using the Biacore Biotin CAPture Kit (GE Healthcare) and biotinylated beta-catenin. Results were analyzed using the Biacore X100 Evaluation Software.

Kd [nM] | Molecule
9 | B1
3 | B2

What follows are molecules tested against T2, full-length beta-catenin (assay: competition FP, grade of FP EC50 (+: 500-5000 nM)). Details: not given.
How it was run: (§2)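 Compound 3-fold serially diluted from 5 µM in Tris pH 8.0, 250 mM NaCl buffer, added to premixed 15 nM full-length β-catenin and 20 nM FITC-labelled stapled axin-site peptide probe. Incubated 15 min in the dark, polarization read in duplicate.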

FP EC50 [nM] | Molecule
500 to 5000 | B3
500 to 5000 | B4
500 to 5000 | B5
500 to 5000 | B6
500 to 5000 | B7
500 to 5000 | B8

The molecules below were run against T2, full-length beta-catenin (assay: competition FP, grade of FP EC50 (+++: <=100 nM)). Details: not given.
Experimental: (§3) In some embodiments, a competition fluorescence polarization assay is used to assess binding of provided compounds to beta-catenin. In an exemplary procedure, solutions of provided compounds, e.g., provided stapled peptides, were prepared in a buffer (e.g., 50 mM Tris pH 8.0, 250 mM NaCl, 2% glycerol, 0.5 mM EDTA, 0.02% w/v sodium azide) using a 3-fold serial dilution from 5 µM. Probe solution (15 nM full-length ß-Catenin, 20 nM FITC labeled peptide in buffer) was prepared and incubated for a period of time, e.g., 5 minutes, and the a volume, e.g., 40 µL per well plated in suitable plate, e.g., a black polystyrene 384-well plate (Corning). Equal volume of the serial diluted peptide was added to the plate and incubated protected from light for 15 minutes prior to read. Reads were performed on a Spectramax M5 (Molecular Devices) in duplicate. Suitable probe was FITC-PEG1-PQ-S5-ILD-S5-HVRRVWR (SEQ ID NO: 1) (hydrocarbon staple formed by two S5 via olefin metathesis) and/or FITC-bA-PQ-S5-ILD-S5-HVRRVWR (SEQ ID NO: 3) (hydrocarbon staple formed by two S5 via olefin metathesis). […] Another peptide, FPO217c (Ac-AR_8ILDAHIM$B5$RVW (SEQ ID NO: 280), with N-terminal proline removed and valine replaced with isoleucine compared to FP0025c) was prepared.

FP EC50 [nM] | Molecule
≤ 100 | B1
≤ 100 | B2

The molecules below were run against T2, full-length beta-catenin (assay: competition FP; amino staple (cyclic)). Details: not given.
Experimental: as §3

EC50 [nM] | Molecule
210 | B9
2360 | B4
200 | B10
1110 | B7
700 | B8
470 | B11

These molecules were tested on TCF/LEF Luciferase reporter HEK293 cell lines (assay: TCF/LEF reporter assay). Details: Table 2.
Assay type: cell-based
Experimental: FIG. 2. […] FIG. 2 depicts exemplary data from TCF/LEF reporter assays. Y-axes illustrate luminescence, and X-axes illustrate concentrations of peptides. […] TCF/LEF Luciferase reporter HEK293 cell lines (BPS Bioscience) were treated with dilution series of FP0025c and FP00217c Isomer 2 for 18 hours. 300 ng/mL of Wnt3a (Peprotech) was added to the cells for the final 6 hours of incubation. Luciferase activity was measured using Bright-Glo Luciferase Assay (Promega) according to manufacturer's protocol.
In some embodiments, a provided assay is a TCF/LEF reporter assay. In some embodiments, in an exemplary such assay, TCF/LEF Luciferase reporter HEK293 cell lines (BPS Bioscience) were treated with dilution series of provided peptides for 18 hours. 300 ng/mL of Wnt3a (Peprotech) was added to the cells for the final 6 hours of incubation. Luciferase activity was measured using Bright-Glo Luciferase Assay (Promega) according to manufacturer's protocol. […] Applicant also notes that teachings of the present disclosure are not restricted to a particular mechanism of action of described agents.

Molecule | TCF/LEF Reporter Inhibition at 10 μM [%]
0ct-P-A-R8-I-L-D-A-H-V-MB-R-V-W-1NH2 (Octyl-PA[R8]ILDAHV[MB(12)]RVW-NH2; staple 3-10) [FP0324c] | 51
CC[C@H](C)[C@H](NC(=O)[C@H](CO)NC(=O)[C@H](C)NC(=O)[C@@H]1CCCN1C(C)=O)C(=O)N[C@@H](CC(C)C)C(=O)N[C@@H](CC(=O)O)C(=O)N[C@@H](C)C(=O)N[C@@H](Cc1c[nH]cn1)C(=O)N[C@H](C(=O)N[C@@H](CCC(N)=O)C(=O)N[C@@H](CCCNC(=N)N)C(=O)N[C@H](C(=O)N[C@@H](Cc1c[nH]c2ccccc12)C(N)=O)C(C)C)C(C)C [FP0098, Ac-P-A-S-I-L-D-A-H-V-Q-R-V-W-NH2] (Ac-PASILDAHVQRVW-NH2) | 18
CCCC[C@H](NC(=O)[C@@H](NC(=O)[C@H](CCCNC(=N)N)NC(=O)[C@H](CCC(N)=O)NC(=O)[C@@H](NC(=O)[C@H](Cc1c[nH]cn1)NC(=O)[C@H](CCC(=O)O)NC(=O)[C@H](CC(=O)O)NC(=O)[C@H](CC(C)C)NC(=O)[C@@H](NC(=O)[C@H](CO)NC(=O)[C@H](CCC(=O)O)NC(=O)[C@@H]1CCCN1C(C)=O)[C@@H](C)CC)C(C)C)C(C)C)C(=O)N[C@@H](CCCCN)C(N)=O [FP0110, Ac-P-E-S-I-L-D-E-H-V-Q-R-V-nL-K-NH2] (Ac-PESILDEHVQRV[Nle]K-NH2) | 19
Ac-P-A-MC-I-L-D-A-H-V-S8-R-V-W-NH2 (Ac-PA[MC(3)]ILDAHV[S8]RVW-NH2; staple 3-10) [FP0099] | 38
Hex-P-A-R8-I-L-D-A-H-V-MB-R-V-W-NH2 (Hex-PA[R8]ILDAHV[MB(12)]RVW-NH2; staple 3-10) [FP0325c] | 73

What follows are molecules tested against T1, biotinylated beta-catenin (assay: Table 3 'Binding Kd (nM)'; method not stated there (SPR in Example 2)). Details: not given.
Experimental: as §1

Kd [nM] | Molecule
10 | B12
3 | B2

These molecules were tested against T2, full-length beta-catenin (assay: competition FP; amino staple (acyclic)). Details: not given.
Experimental: as §3

EC50 [nM] | Molecule
4750 | B3
1400 | B5
580 | B6

Each molecule was assayed against T2, full-length beta-catenin (assay: competition FP, grade of FP EC50 (++: 100-500 nM)). Details: not given.
How it was run: as §2

FP EC50 [nM] | Molecule
100 to 500 | B9
100 to 500 | B12
100 to 500 | B10
100 to 500 | B11
